{"source": "patent US20210063414A1", "about": "“METHODS FOR PREVENTING AND/OR TREATING BONE LOSS CONDITIONS BY MODULATING IRISIN” (Dana-Farber Cancer Institute, Inc., priority 2018, published 2021)", "target": "T1, MLO-Y4 cell surface proteins (Mus musculus, UniProt Q66GT5)", "T1 construct": "endogenous in cells; host or cells: MLO-Y4", "T1 sequence (Q66GT5 32-193)": "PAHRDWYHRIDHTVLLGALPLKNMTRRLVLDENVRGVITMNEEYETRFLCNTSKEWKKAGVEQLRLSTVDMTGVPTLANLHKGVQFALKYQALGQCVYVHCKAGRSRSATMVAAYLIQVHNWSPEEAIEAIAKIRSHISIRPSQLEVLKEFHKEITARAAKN", "assay": "Crosslinking/co-immunoprecipitation/mass spectrometry (TMT quantitative proteomics) to identify irisin receptors", "format": "binding", "details": "co-precipitated protein Ptpmt1 (PTPM1_MOUSE)", "procedure,_shortened": "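Relative protein abundance came from 6-plex TMT MS3 quantitation on an Orbitrap Fusion Lumos, after in-gel trypsin digestion of Coomassie-stained SDS-PAGE lanes. Input was a Ni-NTA pulldown (250 mM imidazole elution) of lysates from murine MLO-Y4 cells. These cells were treated on ice with His-tagged irisin or adipsin (10 nM, 20 min) in serum-free medium, then crosslinked with 1.5 mM DTSSP for 30 min.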"}
{"molecule": "irisin: secreted cleaved form of FNDC5; recombinant human/mouse irisin with C-terminal his tag produced in HEK293 cells (protein, left off: small tags and cut ends, secreted cleaved form of FNDC5; recombinant human/mouse irisin with C-terminal his tag produced in HEK293 cells) DSPSAPVNVTVRHLKANSAVVSWDVLEDEVVIGFAISQQKKDVRMLRFIQEVNTTTRSCALWDLEEDTEYIVHVQAISIQGQSPASEPVLFKTPREAEKMASKNKDEVTMKE", "values": [{"measurement": "TMT signal-to-noise ratio", "value": 51.6065}, {"measurement": "irisin/adipsin TMT signal-to-noise ratio", "value": 0.559}]}
